Results from patent publication US20240368295A1 (SUTRO BIOPHARMA, published 2024).
Where a chain is given by its changes, count along the chain named.

T1: BCMA on BCMA-positive NCI-H929, ARP-1 and U266B1 cells (human, UniProt Q02223 1-184)
T1 sequence: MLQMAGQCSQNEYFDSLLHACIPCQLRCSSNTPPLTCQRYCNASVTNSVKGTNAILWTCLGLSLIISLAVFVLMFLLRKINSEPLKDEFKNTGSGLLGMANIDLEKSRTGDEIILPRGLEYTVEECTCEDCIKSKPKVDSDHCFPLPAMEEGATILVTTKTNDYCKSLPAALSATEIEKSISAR

B1: 9E12 (antibody, V domains shown)
VH: AVTLDESGGGLQTPGGGLSLVCKASGFTFSDYGLGWMRQAPGKGLEYVARINSAGSGTYYGSAVDGRATISRDNGQSTVRLQLNNLRAEDTGTYYCTRGGGGASIDGWGHGTEVIVSS
VL: ALTQPSSVSANPGETVKITCSGGGSYYGSYYYGWYQQKSPGSAPVTLIYNNNNRPSDIPSRFSGSTSGSTGTLTITGVRAEDEAVYYCGSFDSSTDAIFGAGTTLTVL
notes: chicken HybriFree-derived antibody; also called Antibody 43
B2: 10H1 (antibody, V domains shown)
VH: B1 VH with G17A, D31G, L34M, G57D, Y59D, S62A, D65K, G92A, Y95F
VL: B1 VL with S25N, S39A, L47V, D57N, T66K, R79Q, Y87F, S90G, T95S
notes: chicken HybriFree-derived antibody; also called Antibody 45
B3: 9A5 (antibody, V domains shown)
VH: AVTLDESGGGLQTPGGAVSLVCKASGFSISDYGMGWMRQAPGKGLQYVARIDHDGRYTDYGAVVKGRATISRDNGQSTVRLQLNNLRAEDTGTYYCTRGGGAASIDTWGHGTEVIVSS
VL: B1 VL with S25N, Y27V, S29G, S39A, P44L, D57N, G71S, Y87F
notes: chicken HybriFree-derived antibody; also called Antibody 42
B4: 10E10 (antibody, V domains shown)
VH: AVTLDESGGGLQTPGGGLSLVCKASGFTFSSYGMGWMRQAPGKGLEFVARINSGGSSYTDYGSAVKGRATISRDDGQSTVRLQLNNLRAEDTGIYYCTRGGGGASIDGWGHGTEVIVSS
VL: B1 VL with S25N, Y27A, V45L, L47V, N51S, T66L, Y87F, S90G
notes: chicken HybriFree-derived antibody; also called Antibody 46
B5: 9H1 (antibody, V domains shown)
VH: AVTLDESGGGLQTPGGALSLVCKGSGFTFSDYGMGWMRQAPGKGLQYVARINSAGSDTNYGSAVKGRATISRDDGQSTVRLQLSSLRAEDTGIYYCTRGGGGASIDGWGHGTEVIVSS
VL: B1 VL
notes: chicken HybriFree-derived antibody; also called Antibody 44
B6: SRP2291-A04 (antibody, IgG1, V domains shown)
VH: EVQLVESGGGLVQPGGSLRLSCAASGFNISSYGIHWVRQAPGKGLEWVGFISPYDGYTEYADSVKGRFTISAGTSKNTAYLQMNSLRAEDTAVYYCARDFNDRYFTYVLDYWGQGTLVTVSS
VL: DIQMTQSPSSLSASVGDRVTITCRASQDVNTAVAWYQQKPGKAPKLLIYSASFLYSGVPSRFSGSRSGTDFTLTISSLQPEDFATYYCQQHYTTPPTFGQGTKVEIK
notes: IgG1 with trastuzumab light chain, His/FLAG-tagged, cell-free expressed; also called Antibody 28
B7: SRP2291-G05 (antibody, IgG1, V domains shown)
VH: B6 VH with S30A, S31A, G33T, F50W, D55G, G73D, N101H, F105A, Y107F
VL: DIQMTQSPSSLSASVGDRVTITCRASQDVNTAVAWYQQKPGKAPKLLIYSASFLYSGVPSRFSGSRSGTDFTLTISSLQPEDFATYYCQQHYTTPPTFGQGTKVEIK
notes: IgG1 with trastuzumab light chain, His/FLAG-tagged, cell-free expressed; also called Antibody 24
B8: SRP2291-F10 (antibody, IgG1, V domains shown)
VH: B6 VH with S30D, S31P, G33T, F50W, G73D, F100Y, N101Y, F105S, Q114R
VL: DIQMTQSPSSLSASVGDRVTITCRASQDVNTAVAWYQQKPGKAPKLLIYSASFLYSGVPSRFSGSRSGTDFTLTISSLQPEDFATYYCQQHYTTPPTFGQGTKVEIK
notes: IgG1 with trastuzumab light chain, His/FLAG-tagged, cell-free expressed; also called Antibody 27
B9: SRP2291-A01 (antibody, IgG1, V domains shown)
VH: B6 VH with S30D, S31P, G33T, V37A, G49A, F50H, E59D, G73D, N101Y, F105S
VL: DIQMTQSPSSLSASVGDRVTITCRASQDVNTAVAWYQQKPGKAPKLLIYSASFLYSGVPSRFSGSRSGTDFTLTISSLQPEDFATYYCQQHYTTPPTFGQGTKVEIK
notes: IgG1 with trastuzumab light chain, His/FLAG-tagged, cell-free expressed; also called Antibody 29
B10: SRP2291-D07 (antibody, IgG1, V domains shown)
VH: B6 VH with S30K, S31D, Y32T, G33Y, F50V, G73D, R98H, N101Y, F105S
VL: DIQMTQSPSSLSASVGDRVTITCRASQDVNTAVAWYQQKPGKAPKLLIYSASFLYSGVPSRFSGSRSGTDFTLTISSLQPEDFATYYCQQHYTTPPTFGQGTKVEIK
notes: IgG1 with trastuzumab light chain, His/FLAG-tagged, cell-free expressed; also called Antibody 26
B11: SRP2291-E06 (antibody, IgG1, V domains shown)
VH: EVQLVESGGGLVQPGGSLRLSCAASGFNISPYTIHWVRQAPGKGLEWVAHIFPSGGYTDYADSVKGRFTISADTSKNTAYLQMNSLRAEDTAVYYCARDFYDRYATYVLDYWGQGTLVTVSS
VL: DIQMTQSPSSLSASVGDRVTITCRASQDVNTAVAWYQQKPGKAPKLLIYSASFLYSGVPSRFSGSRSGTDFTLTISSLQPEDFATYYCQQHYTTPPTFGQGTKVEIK
notes: IgG1 with trastuzumab light chain, His/FLAG-tagged, cell-free expressed; also called Antibody 25
B12: SRP2290-A02 (antibody, IgG1, V domains shown)
VH: EVQLVESGGGLVQPGGSLRLSCAASGFNISTRWIHWVRQAPGKGLEWVGVITPSAGYTHYADSVKGRFTISAGTSKNTAYLQMNSLRAEDTAVYYCARDLGSRYWVGVFDYWGQGTLVTVSS
VL: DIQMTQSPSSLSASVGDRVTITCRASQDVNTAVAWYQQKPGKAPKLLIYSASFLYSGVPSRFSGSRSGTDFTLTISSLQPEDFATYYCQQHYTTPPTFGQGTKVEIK
notes: IgG1 with trastuzumab light chain, His/FLAG-tagged, cell-free expressed; also called Antibody 22
B13: SRP2290-G01 (antibody, IgG1, V domains shown)
VH: EVQLVESGGGLVQPGGSLRLSCAASGFNISPYWIHWVRQAPGKGLEWVGVITPPSGFTYYADSVKGRFTISADTSKNTAYLQVNSLRAEDTAVYYCARDLGVGYWVGFSDYWGQGTLVTVSS
VL: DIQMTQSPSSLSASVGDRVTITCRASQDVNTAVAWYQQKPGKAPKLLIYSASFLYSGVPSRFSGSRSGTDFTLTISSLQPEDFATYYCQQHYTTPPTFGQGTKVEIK
notes: IgG1 with trastuzumab light chain, His/FLAG-tagged, cell-free expressed; also called Antibody 17
B14: SRP2290-C08 (antibody, IgG1, V domains shown)
VH: B13 VH with S30Q, F57Y, V83M, L100W
VL: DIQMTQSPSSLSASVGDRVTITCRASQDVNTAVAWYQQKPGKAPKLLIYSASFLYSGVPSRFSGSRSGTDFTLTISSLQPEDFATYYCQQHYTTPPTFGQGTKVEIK
notes: IgG1 with trastuzumab light chain, His/FLAG-tagged, cell-free expressed; also called Antibody 21
B15: SRP2290-D02 (antibody, IgG1, V domains shown)
VH: B12 VH with T31S, R32Y, V48M, S54A, H59Y, G73D, S102H
VL: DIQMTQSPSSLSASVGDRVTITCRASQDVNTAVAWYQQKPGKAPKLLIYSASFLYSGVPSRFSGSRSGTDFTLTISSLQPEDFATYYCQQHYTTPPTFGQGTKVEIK
notes: IgG1 with trastuzumab light chain, His/FLAG-tagged, cell-free expressed; also called Antibody 18
B16: SRP2290-D05 (antibody, IgG1, V domains shown)
VH: B13 VH with S30A, P31S, Y32R, P54S, S55A, F57Y, V83M, V102Y
VL: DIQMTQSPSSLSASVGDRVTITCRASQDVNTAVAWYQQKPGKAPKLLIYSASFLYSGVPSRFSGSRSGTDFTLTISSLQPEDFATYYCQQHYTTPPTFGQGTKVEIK
notes: IgG1 with trastuzumab light chain, His/FLAG-tagged, cell-free expressed; also called Antibody 20
B17: SRP2290-C07 (antibody, IgG1, V domains shown)
VH: B13 VH with S30T, P31Y, Y32D, P54F, S55D, F57Y, R67H, V83M, L100M
VL: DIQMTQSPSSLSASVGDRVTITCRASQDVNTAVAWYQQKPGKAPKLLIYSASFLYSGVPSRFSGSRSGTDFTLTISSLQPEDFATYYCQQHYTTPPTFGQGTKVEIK
notes: IgG1 with trastuzumab light chain, His/FLAG-tagged, cell-free expressed; also called Antibody 19
B18: SRP2288-A03 (antibody, IgG1, V domains shown)
VH: EVQLVESGGGLVQPGGSLRLSCAASGFNINNSWIHWVRQAPGKGLEWVGWIYPYIGFTEYADSVKGRFTISADTSKNTAYLQMNSLRAEDTAVYYCARDYDLRYLTGVLDYWGQGTLVTVSS
VL: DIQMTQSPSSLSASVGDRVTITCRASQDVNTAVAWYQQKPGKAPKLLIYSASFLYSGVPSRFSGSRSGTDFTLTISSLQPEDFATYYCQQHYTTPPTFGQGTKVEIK
notes: IgG1 with trastuzumab light chain, His/FLAG-tagged, cell-free expressed; also called Antibody 15
B19: 11D6 (antibody, V domains shown)
VH: AVTLDESGGGLQTPGGTLSLVCKASGFTFSSFNMFWVRQAPGEGLEWVAYIRNDGRSTSYGPAVKGRATISRDNGQSTVRLQLNNLRAEDTGTYFCAKTTCVGSGGCIDTWGHGTEVIVSS
VL: ALTQPSSVSANPGETVEITCSGGNSDYGWFQQKSPGSAPVTVIYRNNQRPSDIPSRFSGSGSGSTNTLTITGVQAEDEAIYYCGNVDFTDDVFGAGTTLTVL
notes: chicken HybriFree-derived antibody; also called Antibody 32

Target: cynomolgus BCMA on 293T-cynoBCMA cells (cynomolgus, UniProt Q02223 1-184 (human entry))
Sequence (Q02223 other isoform, or with tags, fused parts or gaps): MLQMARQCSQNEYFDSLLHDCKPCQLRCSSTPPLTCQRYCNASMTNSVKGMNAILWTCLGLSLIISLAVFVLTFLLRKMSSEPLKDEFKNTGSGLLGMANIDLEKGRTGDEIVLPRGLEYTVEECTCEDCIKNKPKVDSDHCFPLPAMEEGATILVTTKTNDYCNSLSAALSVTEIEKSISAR
Assay: FACS, 293T-cynoBCMA cells
Protocol: (§1) Variants for which sufficient protein was purified in secondary screening were tested in a fluorescence-activated cell sorting (FACS) cell-binding assay. […] 6-12 point dilutions of anti-BCMA variants starting from concentrations of about 100-200 nM antibody were dispensed into each well using a BioMekFX (Beckman Coulter). Cells were then incubated on ice for 1 hr, washed with FACS buffer and incubated for 1 hr on ice with […] FACS buffer containing […] Alexa647-conjugated Goat Anti-Human IgG dispensed using BioMekFX (Beckman Coulter). Cells were then washed 2× with FACS buffer and fixed for 10 minutes in […] PBS with 2% PFA prior to fluorescence detection. Samples were acquired using a Beckton Dickinson LSRII FACS. Geometric Mean Fluorescence Intensity of BCMA antibody binding was analyzed using FlowJo® software (Trec Star, Inc.).

Row | Binder | Bmax (MFI)
1 | B1 | 13200
2 | B2 | 21200
3 | B3 | 18200
4 | B4 | 4540
5 | B5 | 11400
6 | B6 | 63800
7 | B7 | 62700
8 | B8 | 66500
9 | B9 | 67200
10 | B10 | 67900
11 | B11 | 68300
12 | B12 | 70300
13 | B13 | 77100
14 | B14 | 71000
15 | B15 | 75800
16 | B16 | 57600
17 | B17 | 78100
18 | B18 | 46800
19 | B19 | 27700

Target: T1, BCMA on BCMA-positive NCI-H929, ARP-1 …
Assay: cell-based or functional assay

Row | Binder | ARP-1, SC239-conjugated 2° antibody cell killing, EC50 [nM] | ARP-1, SC239-conjugated 2° antibody cell killing, Span [%] | U266B1, SC239-conjugated 2° antibody cell killing, EC50 [nM] | U266B1, SC239-conjugated 2° antibody cell killing, Span [%]
20 | B1 | 1.2 | 80 | 1.4 | 47
21 | B2 | 0.86 | 88 | 0.29 | 89
22 | B3 | 0.7 | 93 | 0.29 | 84
23 | B4 | 3 | 46 | 2.5 | 20
24 | B5 | 1.3 | 74 | 1.1 | 50
25 | B19 | 3.8 | 83 | 1.1 | 67

Target: T1, BCMA on BCMA-positive NCI-H929, ARP-1 …
Assay: FACS, NCI-H929 cells
Protocol: as §1

Row | Binder | Bmax (MFI)
26 | B1 | 8140
27 | B2 | 22500
28 | B3 | 19700
29 | B4 | 3440
30 | B5 | 6160
31 | B6 | 33900
32 | B7 | 23200
33 | B8 | 33800
34 | B9 | 32500
35 | B10 | 28700
36 | B11 | 34400
37 | B12 | 33600
38 | B14 | 37800
39 | B15 | 33600
40 | B16 | 21800
41 | B18 | 16300
42 | B19 | 26400

Target: T1, BCMA on BCMA-positive NCI-H929, ARP-1 …
Assay: cell-based or functional assay
Remark: another data set of the same source

Row | Binder | U266B1, SC225-conjugated 2° antibody cell killing, EC50 [nM] | U266B1, SC225-conjugated 2° antibody cell killing, Span [%]
43 | B6 | 49 | 0.8
44 | B7 | 20 | 0.8
45 | B8 | 46 | 1
46 | B9 | 58 | 1.1
47 | B10 | 16 | 2
48 | B11 | 27 | 1.1
49 | B12 | 1.6 | 70
50 | B13 | 1.4 | 70
51 | B14 | 1.1 | 73
52 | B15 | 1.4 | 60
53 | B16 | 0.96 | 50
54 | B17 | 0.93 | 75
55 | B18 | 2.3 | 42

Target: T2, rat BCMA on 293T-ratBCMA cells (rat)
T2 construct: whole, on cells
Assay: FACS, 293T-ratBCMA cells

Row | Binder | Bmax (MFI)
56 | B1 | 4690
57 | B2 | 4350
58 | B3 | 2780
59 | B4 | 906
60 | B5 | 3450
